Laboratory results reported in patent US20040037843A1.
Like-named read-outs stand apart in the source and are kept apart here. Blank lines part the entries; values can stand above or below the binder they belong to.

How the values were obtained:
HLA-A*0206 (human) [1] = assay: competition with 125I-labeled probe peptide for purified HLA, gel filtration; conditions: remark: other sources report otherwise
HLA-A*0201 (human) [2] = assay: inhibition of 125I probe peptide binding to purified HLA, gel filtration; conditions: remark: other sources report otherwise
HLA-A*6802 (human) [3] = assay: as above; conditions: remark: other sources report otherwise
HLA-A*0201 (human) [4] = conditions: remark: other sources report otherwise
HLA-A*0203 (human) [5] = conditions: remark: other sources report otherwise
HLA-A*0202 (human) [6] = assay: competition with 125I-labeled probe peptide for purified HLA, gel filtration; conditions: remark: other sources report otherwise
HLA-A*0202 (human) [7] = conditions: remark: other sources report otherwise
HLA-A*0203 (human) [8] = conditions: remark: other sources report otherwise; remark: listed apart in the source
HLA-A*2401 (human) = conditions: scale: ratio
HLA-A*0206 (human) [9] = assay: competition with 125I-labelled standard peptide for purified HLA; conditions: remark: other sources report otherwise
HLA-A*0301 (human) = conditions: remark: other sources report otherwise
HLA-A*0201 (human) [10] = assay: competition with 125I-labeled probe peptide for purified HLA, gel filtration; conditions: remark: other sources report otherwise
HLA-A*6802 (human) [11] = assay: as above; conditions: remark: other sources report otherwise
HLA-A*1101 (human) [12] = conditions: remark: other sources report otherwise
HLA-A*0202 (human) [13] = assay: competition with 125I-labelled standard peptide for purified HLA; conditions: remark: other sources report otherwise
HLA-A*0203 (human) [14] = assay: as above; conditions: remark: other sources report otherwise
HLA-A*0201 (human) [15] = conditions: remark: other sources report otherwise; remark: listed apart in the source
HLA-A*0203 (human) [16] = conditions: remark: other sources report otherwise; remark: listed apart in the source
HLA-A*0201 (human) [17] = assay: competition with 125I probe peptide on purified HLA, gel filtration; conditions: remark: other sources report otherwise
HLA-A*6802 (human) [18] = assay: as above; conditions: remark: other sources report otherwise
HLA-A*0206 (human) [19] = assay: as above; conditions: remark: other sources report otherwise
HLA-A*0202 (human) [20] = assay: as above; conditions: remark: other sources report otherwise
HLA-A*0202 (human) [21] = conditions: remark: other sources report otherwise; remark: listed apart in the source
HLA-A*0203 (human) [22] = assay: inhibition of 125I probe peptide binding to purified HLA, gel filtration; conditions: remark: other sources report otherwise
HLA-A*6802 (human) [23] = conditions: remark: other sources report otherwise
HLA-A*0201 (human) [24] = conditions: remark: other sources report otherwise; remark: listed apart in the source
HLA-A*0206 (human) [25] = conditions: remark: other sources report otherwise
HLA-A*0201 (human) [26] = conditions: remark: other sources report otherwise; remark: listed apart in the source
HLA-A*0201 (human) [27] = assay: competition with 125I-labelled probe peptide on purified HLA; conditions: remark: other sources report otherwise
HLA-A*0101 (human) = conditions: remark: other sources report otherwise
HLA-A*0201 (human) [28] = assay: competition with 125I-labelled standard peptide for purified HLA; conditions: remark: other sources report otherwise
HLA-A*1101 (human) [29] = conditions: remark: other sources report otherwise; remark: listed apart in the source
HLA-A*0206 (human) [30] = assay: competition with 125I-labelled probe peptide on purified HLA; conditions: remark: other sources report otherwise
HLA-A*0202 (human) [31] = assay: as above; conditions: remark: other sources report otherwise
HLA-A*0203 (human) [32] = assay: as above; conditions: remark: other sources report otherwise
HLA-A*0203 (human) [33] = assay: competition with 125I probe peptide on purified HLA, gel filtration; conditions: remark: other sources report otherwise
HLA-A*0206 (human) [34] = assay: inhibition of 125I probe peptide binding to purified HLA, gel filtration; conditions: remark: other sources report otherwise
HLA-A*0202 (human) [35] = assay: as above; conditions: remark: other sources report otherwise
HLA-A*0203 (human) [36] = conditions: remark: other sources report otherwise; remark: listed apart in the source

IC50 (HLA-A*0201 (human) [4]): 0.072 µM
IC50 (HLA-A*0203 (human) [5]): 0.073 µM
Binder: SLHLLSNDMCA [Peptide 1419.14, HuK2.175]

IC50 (HLA-A*0202 (human) [7]): 0.102 µM
IC50 (HLA-A*0203 (human) [8]): 0.278 µM
Binder: HLLSNDMCV [peptide 1418.20, HuK2.177.V9]

IC50 (HLA-A*0206 (human) [9]): 0.04 µM
Binder: RMMNDQLMFL [peptide 1126.06, PSM.662]

IC50 (HLA-A*0201 (human) [10]): 0.313 µM
IC50 (HLA-A*6802 (human) [11]): 0.571 µM
IC50 (HLA-A*0206 (human) [1]): 0.04 µM
Binder: GTPEGDLVYV [Peptide 1418.29]

IC50 (HLA-A*0203 (human) [5]): 0.004 µM
Binder: FLRPRSLQCV [Peptide 1419.07, HuK2.165]

IC50 (HLA-A*0202 (human) [13]): 0.0002 µM
Binder: VLAGGFFLL [peptide 1126.10, PSM.27]

IC50 (HLA-A*0202 (human) [13]): 0.0007 µM
Binder: ALFDIESKV [peptide 1129.08, PSM.711]

IC50 (HLA-A*0203 (human) [14]): 0.0095 µM
Binder: KLQCVDLHVV [peptide 1419.24, PSA.166.V10]

IC50 (HLA-A*0202 (human) [21]): 0.001 µM
Binder: ALFPPEGVSV [peptide 1419.61, PAP.122.V10]

IC50 (HLA-A*0202 (human) [21]): 0.0009 µM
Binder: GLHGQDLFGI [peptide 1166.11, PAP.196]

IC50 (HLA-A*6802 (human) [11]): 0.964 µM
IC50 (HLA-A*0206 (human) [1]): 0.112 µM
Binder: GLPEGDLVYV [Peptide 1389.22]

IC50 (HLA-A*0203 (human) [22]): 0.115 µM
Binder: MLLRLSEPAEV [Peptide 1389.12 (PSA.118.V11)]

IC50 (HLA-A*6802 (human) [23]): 6.67 µM
Binder: KVTEFMLCV [peptide 1418.21, HuK2.191.V9]

IC50 (HLA-A*0201 (human) [24]): 0.0053 µM
IC50 (HLA-A*6802 (human) [23]): 1.7 µM
IC50 (HLA-A*0206 (human) [25]): 0.01 µM
IC50 (HLA-A*0202 (human) [7]): 0.0007 µM
IC50 (HLA-A*0203 (human) [8]): 0.0043 µM
Binder: LLSNDMCARV [peptide 1418.53, HuK2.178.V10]

IC50 (HLA-A*0201 (human) [26]): 0.04 µM
Binder: SLSLGFLFLL [peptide 1419.51, PAP.13]

IC50 (HLA-A*0202 (human) [21]): 0.0006 µM
Binder: LLFFWLDRSV [peptide 1097.09, PAP.21]

IC50 (HLA-A*0201 (human) [28]): 0.05 µM
Binder: DLMLLRLSEPV [peptide 1419.13, PSA.116.V11 / HuK2.120.V11]

IC50 (HLA-A*0201 (human) [4]): 0.05 µM
Binder: DLMLLRLSEPV [Peptide 1419.13, HuK2.120.V11]

IC50 (HLA-A*0201 (human) [17]): 0.278 µM
IC50 (HLA-A*0206 (human) [19]): 2.64 µM
IC50 (HLA-A*0203 (human) [33]): 0.133 µM
Binder: ALFPPEGVSI [Peptide 1419.6 … (PAP.122)]

IC50 (HLA-A*0203 (human) [36]): 0.0032 µM
Binder: GLHGQDLFGV [peptide 1419.62, PAP.196.V10]

IC50 (HLA-A*0206 (human) [25]): 0.051 µM
Binder: FMLCAGLWV [peptide 1418.22, HuK2.195.V9]

More lines, now with the values behind:

Binder: RMMNDQLMFL [Peptide 1126.06]
IC50 (HLA-A*0206 (human) [1]): 0.04 µM

Binder: LMLLRLSEPA [Peptide 63.0014 (PSA.117)]
IC50 (HLA-A*0201 (human) [2]): 0.2 µM
IC50 (HLA-A*6802 (human) [3]): 5 µM

Binder: ALFDIESKV [Peptide 1129.08]
IC50 (HLA-A*0202 (human) [6]): 0.0007 µM

Binder: VYNGLLPPY [PAP (Prostatic Acid Phosphatase) peptide, position 302, 9 amino acids]
relative binding ratio (A*2401) (HLA-A*2401 (human)): 0.032

Binder: VTKFMLCAGR [PSA 188 10-mer peptide …]
relative binding ratio (IC50 of standard peptide / IC50 of test peptide) (HLA-A*0301 (human)): 0.0003

Binder: VTKFMLCAGR [PSA position 188, 10 amino acids]
relative binding ratio (IC50 of standard peptide / IC50 of test peptide) (HLA-A*1101 (human) [12]): 0.012

Binder: RAVCGGVLVH [PSA peptide, position 43, 10 amino acids]
relative binding ratio (IC50 of standard peptide / IC50 of test peptide) (HLA-A*0301 (human)): 0.011

Binder: VFRHGDRSPI [PAP (Prostatic Acid Phosphatase) peptide, position 41, 10 amino acids]
relative binding ratio (A*2401) (HLA-A*2401 (human)): 0.0005

Binder: STCSGDSGGPL [PSA peptide, position 203, 11 amino acids]
relative binding ratio (HLA-A*0201 (human) [15]): 0.0005
relative binding ratio (HLA-A*0203 (human) [16]): 0.0092

Binder: GVSIWNPILV [Peptide 63.0041 … (PAP.128.V10)]
IC50 (HLA-A*0201 (human) [17]): 0.25 µM
IC50 (HLA-A*6802 (human) [18]): 2.29 µM
IC50 (HLA-A*0206 (human) [19]): 0.451 µM
IC50 (HLA-A*0202 (human) [20]): 0.094 µM

Binder: VLAGGFFLL [Peptide 1126.10]
IC50 (HLA-A*0202 (human) [6]): 0.0002 µM

Binder: KLRELSELSV [Peptide 63.0048 … (PAP.234.V10)]
IC50 (HLA-A*0201 (human) [17]): 0.263 µM
IC50 (HLA-A*6802 (human) [18]): 1.82 µM

Binder: WVLTAAHCI [PSA 55, 9 amino acids]
relative binding ratio (HLA-A*0201 (human) [27]): 0.0008

Binder: LTQLGMEQHY [PAP peptide, position 70, 10 amino acids]
relative binding ratio (IC50 of standard peptide / IC50 of test peptide) (HLA-A*0101 (human)): 0.62

Binder: RAVCGGVLVH [PSA 43, 10 amino acids]
relative binding ratio (IC50 of standard peptide / IC50 of test peptide) (HLA-A*1101 (human) [29]): 0.031

Binder: WVLTAAHCL [Kallikrein 59, 9 amino acids]
relative binding ratio (HLA-A*0201 (human) [27]): 0.0003
relative binding ratio (HLA-A*0206 (human) [30]): 0.016
relative binding ratio (HLA-A*0202 (human) [31]): 0.0018
relative binding ratio (HLA-A*0203 (human) [32]): 0.0001

Binder: TLSVTWIGV [Peptide 60.0217 (PSA.5.V9)]
IC50 (HLA-A*6802 (human) [3]): 0.229 µM
IC50 (HLA-A*0206 (human) [34]): 0.712 µM
IC50 (HLA-A*0202 (human) [35]): 0.0049 µM
IC50 (HLA-A*0203 (human) [22]): 0.04 µM

Binder: QLMFLERAFI [Peptide 1126.16]
IC50 (HLA-A*6802 (human) [11]): 0.03 µM

Binder: PLLLWQPIPV [Peptide 63.0042 … (PAP.134.L2)]
IC50 (HLA-A*0201 (human) [17]): 0.238 µM
IC50 (HLA-A*0206 (human) [19]): 0.336 µM
IC50 (HLA-A*0202 (human) [20]): 0.047 µM
